Reference: the Immune Epitope Database (IEDB)
pIC50, pKd: −log10 of the molar value.

Assays:
HLA-A*24:03 = assay: IEDB peptide-MHC binding, purified MHC/direct/fluorescence; filed as Kd, often an IC50 or EC50 that approximates it; ≥ and ≤ were set here for values at or beyond the usual limits of such assays; conditions: source organism: Cryptosporidium parvum Iowa II
HLA-A*02:12 = assay: as above; conditions: source organism: Cryptosporidium parvum Iowa II
HLA-A*03:01 = assay: as above; conditions: source organism: Cryptosporidium parvum Iowa II
HLA-B*27:03 = assay: as above; conditions: source organism: Cryptosporidium parvum Iowa II
HLA-B*51:01 = assay: as above; conditions: source organism: Cryptosporidium parvum Iowa II
HLA-B*15:01 = assay: as above; conditions: source organism: Cryptosporidium parvum Iowa II
HLA-A*23:01 = assay: as above; conditions: source organism: Cryptosporidium parvum Iowa II
HLA-A*02:01 [1] = assay: as above; conditions: source organism: Cryptosporidium parvum Iowa II
HLA-A*26:01 = assay: as above; conditions: source organism: Cryptosporidium parvum Iowa II
HLA-A*02:16 = assay: as above; conditions: source organism: Cryptosporidium parvum Iowa II
HLA-B*57:01 = assay: as above; conditions: source organism: Cryptosporidium parvum Iowa II
HLA-A*02:11 = assay: as above; conditions: source organism: Cryptosporidium parvum Iowa II
HLA-B*46:01 = assay: as above; conditions: source organism: Cryptosporidium parvum Iowa II
HLA-C*05:01 = assay: as above; conditions: source organism: Cryptosporidium parvum Iowa II
HLA-A*02:03 = assay: as above; conditions: source organism: Cryptosporidium parvum Iowa II
HLA-A*02:19 = assay: as above; conditions: source organism: Cryptosporidium parvum Iowa II
HLA-A*29:02 = assay: as above; conditions: source organism: Cryptosporidium parvum Iowa II
HLA-C*14:02 = assay: IEDB peptide-MHC binding, purified MHC/competitive/fluorescence; filed as Kd, often an IC50 or EC50 that approximates it; ≥ and ≤ were set here for values at or beyond the usual limits of such assays; conditions: source organism: Cryptosporidium parvum Iowa II
HLA-B*83:01 = assay: as above
HLA-A*68:23 = assay: as above; conditions: source organism: Cryptosporidium parvum Iowa II
HLA-B*45:06 = assay: as above
HLA-B*15:42 = assay: as above
HLA-A*32:07 = assay: as above; conditions: source organism: Mycobacterium tuberculosis C
HLA-C*08:02 = assay: IEDB peptide-MHC binding, purified MHC/direct/fluorescence; filed as Kd, often an IC50 or EC50 that approximates it; ≥ and ≤ were set here for values at or beyond the usual limits of such assays; conditions: source organism: Hylobates lar
HLA-A*68:02 = assay: IEDB peptide-MHC binding, purified MHC/competitive/fluorescence; ≥ and ≤ were set here for values at or beyond the usual limits of such assays; conditions: source organism: Monodelphis domestica
HLA-A*02:01 [2] = assay: as above; conditions: source organism: Monodelphis domestica
[3] = source organism: Cryptosporidium parvum Iowa II
[4] = source organism: Mycobacterium tuberculosis C

Sequence: MPMSMPIPM
- pKd (HLA-A*24:03): ≤ 4.70
- pKd (HLA-A*02:12): ≤ 4.70
- pKd (HLA-A*03:01): ≤ 4.70
- pKd (HLA-B*27:03): ≤ 4.70
- pKd (HLA-B*51:01): 5.23
- pKd (HLA-B*15:01): ≤ 4.70
- pKd (HLA-A*23:01): ≤ 4.70
- pKd (HLA-A*02:01 [1]): ≤ 4.70
- pKd (HLA-A*26:01): ≤ 4.70
- pKd (HLA-A*02:16): ≤ 4.70
- pKd (HLA-B*57:01): ≤ 4.70
- pKd (HLA-A*02:11): ≤ 4.70
- pKd (HLA-B*46:01): ≤ 4.70
- pKd (HLA-C*05:01): ≤ 4.70
- pKd (HLA-A*02:03): ≤ 4.70
- pKd (HLA-A*02:19): ≤ 4.70
- pKd (HLA-A*29:02): ≤ 4.70
- pKd (HLA-C*14:02): 6.90
- pKd (HLA-B*83:01; [3]): 7.40
- pKd (HLA-A*68:23): 8.57
- pKd (HLA-B*45:06; [3]): ≤ 5.30
- pKd (HLA-B*15:42; [3]): ≤ 5.30

Sequence: RIRAANLPI
- pKd (HLA-B*83:01; [4]): ≤ 5.30
- pKd (HLA-B*45:06; [4]): ≤ 5.30
- pKd (HLA-B*15:42; [4]): ≤ 5.30
- pKd (HLA-A*32:07): 7.48

Sequence: YSLEYFQFV
- pKd (HLA-C*08:02): ≤ 4.70
- pIC50 (HLA-A*68:02): 6.97
- pIC50 (HLA-A*02:01 [2]): 7.23
